Results as given in the DeepSol protein solubility set.

test: soluble on expression in E. coli; label from the status in PepcDB or PDB records

| Sequence | soluble on expression in E. coli |
| --- | --- |
| MFPSVDPEKCEDKGECVSTCPYEVFELGIRTAEEISELSFIGRIEARAHGNRMARTSHIDMCHVCGDCVIVCSEKAIRLLPR | not soluble |
| MFRPILILTILSCVLAYHQYRELKCSTPTNSIRGGPDRAECHLVLKAEELETGRPVPTGLGCWQEDHDGEEREYCDIVCPKSHTVFISYIDQGHRACFNFITYQVEKRNDEHVLWRSGKCLNSTVNYRIGCKFDDPFETQFKSDNEIFAHLRARARRV | not soluble |
| MFSDYHVHSSFSFDSEESPRAIVEKAIALGMKQICFTDHQDFNWPIKGESPYIDFPKYFEVLNSLRNEYSSKINILKGVELGLTSDNFSLCHKFLDSYDFDFVIGSCHIVDQMDPYYAEFWKGKNDRDCFELYFKTLLDSLKFFIGRNTCTTPRTVNTLGHLDYIVRYSPNKDNNYSVADYIDVIDEILKMIIENDIKLEINTSNFSKGFDFPNPHTDIIRRYKELGGLYVTVGSDAHKAQFIGSGFDLVEKIVEKYKLKVFTI | not soluble |
| MFSIQIPALHGKYLREVLESIREQTFQDYEVVVVNSGGGVISDIVHEYGFKEVRKDVKLLEARYLANKESRGDYAFLLDETRPLRKDALEILSKNLHDMVIIGERELGDSFWSRAAQLDKENIMECNSPEAVRGFALPRLFKRELLTASLEKLRENLREKFSQVVFPDHELIYYEASGFSNDIFVIKDELVYHYGDFTLKEIVRKYYRYGKSLKVLKDTPYSFMTSVSRKRREICVGGIKGRLTLYILYLARGIPFLFGKFSLLEHHHHHH | soluble |
| MFSPDTNSEFYDDFYTKYNTNMAPTTSTFNAQPRLSLDSGLGLTNDSFYSTDLNETHLMDISAGNASTSFQSQPPPQLESSPPTKWARIRTPPNRKKKISHEGPNQEALPPGFNLFSPPSRKKIKTAFSSPPPKSMKTPDSLRKSIRISSPSPFKVTFSKTPLKLSNNENVTGIHIGRSGTYYNKQVTGSASKRCLLPSKPDGFTFLGSPGNSDVLDFPLQTTFEGFGDLDTPAKINAALEVNNDDSMDYYQYAGMIETSSSLATYTNSTGPLVENHARNLKSVPISRTASRNLMKISRKSVEEPVPEPQAVHVEPVIEKPTKISAKKEKEQKKSAAKEAALKEAKEKEMRIWKLAPFETPKKEVPLYSGRWLVISTGRTLAQQELFSDAKSFFKANPPPAPRAPQAPELASGPRRIPTIQRVTLFKHRYRSPRD | not soluble |
| MFSPEQIAGKDVRLLRIKKEGSLDLALEGGVDSPVGKVVVSAVYEGGAAERHGGVVKGDEIMAINGKIVTDYTLAEAEAALQKAWNQGGDWIDLVVAVCPPKEYDDELTFF | soluble |
| MFSVNNTHSSVSCSPSINSNSTSNEHYLRILTEWEKNSSPGEERGIAFNRLSQCFQNQEAVLNLSDLNLTSLPELPKHISALIVENNKLTSLPKLPAFLKELNADNNRLSVIPELPESLTTLSVRSNQLENLPVLPNHLTSLFVENNRLYNLPALPEKLKFLHVYYNRLTTLPDLPDKLEILCAQRNNLVTFPQFSDRNNIRQKEYYFHFNQITTLPESFSQLDSSYRINISGNPLSTRVLQSLQRLTSSPDYHGPQIYFSMSDGQQNTLHRPLADAVTAWFPENKQSDVSQIWHAFEHEEHANTFSAFLDRLSDTVSARNTSGFREQVAAWLEKLSASAELRQQSFAVAADATESCEDRVALTWNNLRKTLLVHQASEGLFDNDTGALLSLGREMFRLEILEDIARDKVRTLHFVDEIEVYLAFQTMLAEKLQLSTAVKEMRFYGVSGVTANDLRTAEAMVRSREENEFTDWFSLWGPWHAVLKRTEADRWAQAEEQKYEMLENEYSQRVADRLKASGLSGDADAEREAGAQVMRETEQQIYRQLTDEVLALRLSENGSRLHHS | not soluble |
| MFTKSCAKATDQNRQELFMDSLLGDFQKMKEKALNQQQERRSKKRELHCKSSEKTKKPNQYAALTHSQVQEVKAKVRTVNDKFHLNAEEKKLWELILLGNQLAQNISSCDLPTDNEDDASLVKLTQIFADETLERTDLTWLNKILKIALYSRGSGFGNCQEKAFFVFALLLHQAQKPESLIHSLRLATFNNHFILIVNEQFLMDPWLNLAFPLSKGNQQLEIGYVFERFGRLVNYFSINQEGQCFTHTVREGGTIERDPSSEKDMANCIHSLLDHRDYFDLSIVSEREIHTNTKRRKYENQEQEVPQPRQETSNQPTETVYTDSSHNTWDNEGAADDFLEHFEQTHPVYNPGFFSFGQDDVGLKPDLPKNLFKF | not soluble |
| MFTSKPAFKIKNKASKSYRNTAVSKKLKEKRLAEHVRPSCFNIIRPLKKDIQIPVPSSRFLNKIQIHRIASGSQNTQFRQFNKTSIKSSKKYLNSFMAFRAYYSQFGSGVKQNVLSSLLAEEWHADKMQHGIWDYFAQQYNFINPGFGFVEWLTNNYAEVRGDGYWEDVFVHLAL | not soluble |
| MFTTYKNINELENAYDEERKQLNDAFNQIDELRHQTRKKCEQMYDHFLYLKHKMNYSEDAMIRMTRIIESFDRETNQRIRHHEMKLEDYKDELRREYLKQSDRIEGDELEHHHHHH | not soluble |
| MFVPLAMLAGMFSYYETFHETEALQDDLLRQAALYVAPDSKPETLPEGDGDTRIFVQMPQQEDPVVSLPAHLADGLHTLQADGDDDYYRVYIRTTEQGRIAVMQENEYREDLAADAARQSVLPLLAALPLMILLTVWITHKAMRPVRKLSQSLEQRRINDLSALSVDNIPSEIRGFVTAINLLLKRADEDIRHRQRFVADAAHELRTPMTALSLQAERLNNMSLPPDAARQPAVLQQSIRRNKHLLEQLLALARSQSDETPLTKTTFGLQSRFRQVLQELMPLALEKRQDIGVAVGGDVEVSADETEIYTLIKTFADNAVRYTPPEGRIDLGFTDEGKYLAVWVEDNGNGIPESERARVLDPFYRILGTEQQGTGLGLSIADTLAKKYGGHLELTDSRRFGHGLLIRALLDKETLK | not soluble |
| MFWVFLVRHGEAYPEEVDPQRPLTEKGRKDTEKIAKALKNFGVKPELIYTSPKLRAKQTAKIIANILGVEKIRETELLLPNTDPKETSKLIDGKNVVLCGHLPNLARLFSLLYLSEDNERRVNLSTSGALVLKWKDFWVLELLLEPSVL | not soluble |
| MFYILNNVLKNIKTLDNVKSKFFLKDSFLKNKLKANNLDDNLSSHIFFNEIFVSLRDDEKKEEHKKVLLFNKVRNDKKHRKRAFQKRGYWKKMHYFIRKNNMMSYAFKVQNIDYEKIKKLKRGEVYSN | not soluble |
| MGAAMGPALAVDAAQEAPTADNSPAVEAPQTPEEGEQSAQTSQDNPRYESQIVRAGHSAEAEQVGDVSEDTIFEYSEFDIPEGWFVSVDEDSGKVTVSTPPDAQDGDNYTVKVKAVDLDGNVTWSEVTFTVGDPETDNPEIEPLDADAPEVELPAAE | not soluble |
| MGAGREVSVSLDGVRDKNLMQLKILNTVLFPVRYNDKYYADAIAAGEFTKLAYYNDICVGAIACRLEKKESGAMRVYIMTLGVLAPYRGIGIGSNLLNHVLDMCSKQNMCEIYLHVQTNNEDAIKFYKKFGFEITDTIQNYYINIEPRDCYVVSKSFAQSEANK | soluble |
| MGALLKGRIYTMSVKTLKRTITAVAILAASVMSSSAWSNDLKEIRERGVLRHIGVPYANFVSYIEQGEMHTLTGLDVDIVKGFASSLGVRYEYVPAQWSDMVGKLTGQDVQYRHNRAVVGGSVPIEGDLIANGVTILDWREEVLDFSQDYFPSAVWLVSRTDSSLSPIKPSGSIDEDVKTVKELIDGREVLALEHSCLDPNLYDLYDTGAKVILPDGKRLLNEMVPAIMKNDAESTLLDVADTLIALEKWPG | not soluble |
| MGALVIRGIRNFNLENRAEREISKMKPSVAPRHPSTNSLLREQISLYPEVKGEIARKDEKLLSFLKDVYVDSKDPVSSLQVKAAETCQEPKEFRLPKDHHFDMINIKSIPKGKISIVEALTLLNNHKLFPETWTAEKIMQEYQLEQKDVNSLLKYFVTFEVEIFPPEDKKAIRSK | soluble |
| MGAPALPQIWQLYLKNYRIATFKNWPFLEDCACTPERMAEAGFIHCPTENEPDLAQCFFCFKELEGWEPDDNPIEEHRKHSPGCAFLTVKKQMEELTVSEFLKLDRQRAKNKIAKETNNKQKEFEETAKTTRQSIEQLAA | soluble |
| MGASKDAMDEEGNAAADLGLVARIRESFDSLTATEREAAQFILGHLTDVLVCNSVELSQLSGISQPTLSRLYRKLGYANAGEFRRDVRRVHRPGSPELSRHTQCDDLVADHLRRDEESLKRTFEGIDRAQLSSACQAMATAPHVAVVGYHSSYPVALHMREQLMRLRGNVDILPNPGQSIAEDLVDYAAGDVIVIIGVGRRLPFFSRLIDVMLERGLTVVVIGDISARNAVIGRNVAFFKVVLSSHVLTSFTAAFALIALMVDEVGKCLVDTEDEVHARIEGINDCFDALNELED | not soluble |
| MGASSSSSVSEKSIHQFTVKDSSGKEVDLSVYQGKVLLVVNVASKCGFTESNYTQLTELYRKYKDQGFVVLAFPCNQFLSQEPGTSEEAHQFACTRFKAEYPVFQKVRVNGQNAAPVYKFLKSKKPSFLGSRIKWNFTKFLVGKDGQVIDRYGTTVSPLSIQKDIEKALAQEL | soluble |
| MGCCQSKKARNNQRNNQRSDQMNRQHTQPSPNASTEQMAYPRQQPQGIPQGPPPAYAPPAAPKAPEKVVEPKNRRVTIAEPPERVAEPSPTPEDPELFTCIDQTEKEVEKEVEKRKSAPRAPVPAPTPAPQAAPQATPAAPAQAYPQQQQAAPVVYGSQPMVMGAAPVAPVVMAPPPVIMSPYPYYGGGVMFDPYYNGFYGGYGYGGFDFGYGGYGGYGCGFY | not soluble |
| MGDPKAFLNIPRQEAGYRPVSERITDYSQVEQTLNTNSRKLQASRCMDCGVPFCHWACPIGNKQPEWQDALFKGKWKEAYEVLSSTCDFPEFTGRICPALCEKSCVLKLSCDQPVTIRENEAAIVEAAFREGYIQVQHPQRNGKKVAVVGAGPAGLVVANQLNLKGYTVTLFDKDEAAGGLLRFGIPNFKLDKNVIDRRMKILAAEGIQFEMGVEIDVNHLPEGFDAYCICTGTPTARDLSIPGRELKGIHFALEMLAQQNRILEGQTFPKDKLVNAKGKKVLVIGGGDTGSDCIGTSVRQGATSVTQIEIMPKPPVGHNPSTPWPQWPVVFKTTSSHEEGCTRRWCLTSNQFLGKNGKVTGVEVEEVEWTPATDGGRPTMNLTGKKEVIEADMVLLAMGFLKPEQPKFAENVFLAGDAATGASLVVRAMAGGRKAAADIDHYLVKLEHHHHHH | soluble |
| MGDTMQQRLTQDLTQFLASLPEDDRIKAINEIRMAIHQVSPFREEPVDCVLWVKNSQLMPNDYNPNNVAPPEKKLLQKSIEIDGFTQPIVVTHTDKNAMEIVDGFHRHEIGKGSSSLKLRLKGYLPVTCLEGTRNQRIAATIRHNRARGRHQITAMSEIVRELSQLGWDDNKIGKELGMDSDEVLRLKQINGLQELFADRQYSRAWTVK | soluble |
| MGEELNRLLDVLGNETRRRILFLLTKRPYFVSELSRELGVGQKAVLEHLRILEEAGLIESRVEKIPRGRPRKYYMIKKGLRLEILLTPTLFGSEMYEAKGVRKSPEYEQAKELIKSQEPINVKMRELAEFLHELNERIREIIEEKRELEEARILIETYIENTMRRLAEENRQIIEEIFRDIEKILPPGYARSLKEKFLNINI | soluble |
